Results on 12 molecules are retold here after article PMC3734085 (The Journal of Cell Biology, 2013).

First the molecules themselves.
B2: His-tagged Sec6p (pET46-Sec6) (natural protein)
chain: MSSDPLQQVCDLIKGDLSLERVRDIKEQLLKEKSVVEYQLNKESDKYYGEVEESLKLLNLSKNSVTSIKQQINEVNKLGNDNRFAINRYDILFRATKLYETVNTTSSIYDRIYNFVALMEHIERLLVAELAEDALETGCPHLLEIHFLLTSARDFQEQVVVMAKEATEDAQRTVMKLFSRLSGIISKFDKLLDGLTYDIVEMARAEQISLAIRLFKIYDLEEREDLRIEAIRNIIKKKEIEIEKSSIKKLPNSKNTARLQDETPKVIEYPTNKGLYQEIMSGTISTRTAPRGYKHFLINGINNSISEMFGEMREKYVGDQKFDVLDNMDWIFNELIIVKEHIANCCPPHWNIFEVYFDQYYKELHSLITDLVESEPETIIILDILAFDKTFQDTLKQDFGFTKSEVKSVIGDKEKETLFKDYLNLIVVKMTEWIGNLEKAEFDVFLERSTPPHSDSDGLLFLDGTKTCFQMFTQQVEVAAGTNQAKILVGVVERFSDLLTKRQKNWISKISEEIKKQINYNHKYDIDPESITPEDECPGGLVEYLIAVSNDQMKAADYAVAISSKYGKLVSKVYEKQITNHLEGTLDGFAEVAQCSSLGLITLMFDDLRKPYQEIFSKTWYMGSQAQQIADTLDEYLLDIKPQMNSVLFVNFIDNVIGETIIKFLTALSFEHSFKNKNNKFLEAMKRDFEIFYQLFVKVLDGNESKDTLITQNFTVMEFFMDLSCEPIDSILDIWQKYLEVYWDSRIDLLVGILKCRKDVSSSERKKIVQQATEMLHEYRRNMEANGVDREPTLMRRFVLEFEKQ

The target in assay [1] is B2. The assay is described as follows: pull-down.
In assay [2] the target is T1, Snc2p-M2-His6 (R75E R79E K82E) reconstituted into liposomes (S. cerevisiae, UniProt P33328 1-115, R75E | R79E | K82E).
T1 sequence: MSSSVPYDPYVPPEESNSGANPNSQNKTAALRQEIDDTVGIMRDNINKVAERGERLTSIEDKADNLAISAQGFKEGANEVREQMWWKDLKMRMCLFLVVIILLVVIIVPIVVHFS
The assay is described as follows: […], pH 7.4, 0.5 µg/µl BSA.

Assay [3] concerns the target B2. The assay is described as follows: […], pH 7.4, 0.5 µg/µl BSA.

B1: His-MBP-Sec9ct (416–651 aa) (domain or fragment)
chain: ARQQQEEDEAVDEIKQEIKFTKQSSVASTRNTLKMAQDAERAGMNTLGMLGHQSEQLNNVEGNLDLMKVQNKVADEKVAELKKLNRSILAVHVSNPFNSKRRRREREEQLKNRKIEEKLMREQTSQQLSQSTQRIEGAMNANNNISEVRERYQRKNVLEKAKRYQFENDEEDDEMELEIDRNLDQIQQVSNRLKKMALTTGKELDSQQKRLNNIEESTDDLDINLHMNTNRLAGIR
As to B1, the binding result in assay [1] is given as “binds”.
On to B2, for which the “fold reduction in binding against wild-type Snc2p liposomes” value in assay [2] is at least 2 fold.

B3: Snc2p-His6, full-length Snc2p reconstituted into liposomes (natural protein)
chain: MSSSVPYDPYVPPEESNSGANPNSQNKTAALRQEIDDTVGIMRDNINKVAERGERLTSIEDKADNLAISAQGFKRGANRVRKQMWWKDLKMRMCLFLVVIILLVVIIVPIVVHFS
As for B3, in assay [3], the binding result was “binds”.

B4: GST-Snc2p (cytosolic domain of Snc2p, 1–92 aa, fused to GST) (domain or fragment)
chain: MSSSVPYDPYVPPEESNSGANPNSQNKTAALRQEIDDTVGIMRDNINKVAERGERLTSIEDKADNLAISAQGFKRGANRVRKQMWWKDLKMR
One may read the Kd as the free concentration of one partner at which half of the binding sites on the other are occupied at equilibrium, for simple one-to-one binding. Read a high Kd as lower affinity. In the case of B4, in assay [1], the Kd was 13 ± 6 µM.

B5: GST-Snc2p E51A E54A (M5) (domain or fragment)
chain: MSSSVPYDPYVPPEESNSGANPNSQNKTAALRQEIDDTVGIMRDNINKVAARGARLTSIEDKADNLAISAQGFKRGANRVRKQMWWKDLKMR
On to B5, for which the binding result in assay [1] was “binds”.

B6: GST-Snc2p R75A (domain or fragment)
chain: MSSSVPYDPYVPPEESNSGANPNSQNKTAALRQEIDDTVGIMRDNINKVAERGERLTSIEDKADNLAISAQGFKAGANRVRKQMWWKDLKMR
For the molecule B6, in assay [1], the binding result is reported as “binds”.

B7: GST-Snc2p E51R E54R (M6) (domain or fragment)
chain: MSSSVPYDPYVPPEESNSGANPNSQNKTAALRQEIDDTVGIMRDNINKVARRGRRLTSIEDKADNLAISAQGFKRGANRVRKQMWWKDLKMR
Turning to B7, in assay [1], the binding result is on record as “binds”.

B8: GST-Snc2p E60K D61R D64R (M4) (domain or fragment)
chain: MSSSVPYDPYVPPEESNSGANPNSQNKTAALRQEIDDTVGIMRDNINKVAERGERLTSIKRKARNLAISAQGFKRGANRVRKQMWWKDLKMR
For B8, the binding result in assay [1] is “binds”.

B9: GST-Snc2p K82A (domain or fragment)
chain: MSSSVPYDPYVPPEESNSGANPNSQNKTAALRQEIDDTVGIMRDNINKVAERGERLTSIEDKADNLAISAQGFKRGANRVRAQMWWKDLKMR
In the case of B9, the binding result in assay [1] was “binds”.

B10: GST-Snc2p E60A D61A D64A (M3) (domain or fragment)
chain: MSSSVPYDPYVPPEESNSGANPNSQNKTAALRQEIDDTVGIMRDNINKVAERGERLTSIAAKAANLAISAQGFKRGANRVRKQMWWKDLKMR
On to B10, for which, in assay [1], the binding result was “binds”.
In assay [1], GERLTSIEDKADNLAISAQGFKRGANRVRKQMWWKDLKMR (domain or fragment) [GST-Snc2p fragment (53–92 aa)] showed a Kd of 18 µM.

B11: GST-Snc2p fragment (28–92 aa) (domain or fragment)
chain: TAALRQEIDDTVGIMRDNINKVAERGERLTSIEDKADNLAISAQGFKRGANRVRKQMWWKDLKMR
As to B11, the binding result in assay [1] was “binds”.
